Assay [1] has as its target cryptogein (wt cryptogein, Cry) (Phytophthora cryptogea, UniProt P15570). Nature of the assay: biochemical.
The target of assay [2] is cryptogein (wt cryptogein, Cry) (Phytophthora cryptogea, UniProt P15570, L61F). Nature of the assay: biochemical.
Assay [3] deals with high-affinity binding site on the tobacco plasma membrane (tobacco (endogenous in Xanthi cell suspension)). Nature of the assay: filter binding of FITC-labelled ligand to plasma membrane preparations.

We go through five molecules from paper PMC3295402 (Journal of Experimental Botany, 2012).

For orientation: Kd means the constant that tells how readily two partners part at equilibrium.

Regarding `CC(C)[C@@H](C)/C=C/[C@@H](C)[C@H]1CC[C@H]2C3=CC=C4C[C@@H](O)CC[C@]4(C)C3=CC[C@]12C` [DHE], the values for the Kd in assay [1] and in assay [2] were 560 ± 40 nM and 850 ± 50 nM, respectively.

B1: wild type (wt) cryptogein (ligand)
chain: GTACTATQQTAAYKTLVSILSDASFNQCSTDSGYSMLTAKALPTTAQYKLMCASTACNTMIKKIVTLNPPNCDLTVPTSGLVLNVYSYANGFSNKCSSL
modifications: fluorescein isothiocyanate (FITC) label, site not stated
In assay [3], B1 displayed an amount of bound molecules at 10 nM (pmol mg^−1 plasma membrane proteins) of 57.4.

B2: cryptogein Leu41Phe/Val84Phe double mutant (ligand)
chain: GTACTATQQTAAYKTLVSILSDASFNQCSTDSGYSMLTAKAFPTTAQYKLMCASTACNTMIKKIVTLNPPNCDLTVPTSGLVLNFYSYANGFSNKCSSL
modifications: fluorescein isothiocyanate (FITC) label, site not stated
In assay [3], B2 showed an amount of bound molecules at 30 nM (pmol mg^−1 plasma membrane proteins) of 16.9.

B3: cryptogein Leu41Phe mutant (ligand)
chain: GTACTATQQTAAYKTLVSILSDASFNQCSTDSGYSMLTAKAFPTTAQYKLMCASTACNTMIKKIVTLNPPNCDLTVPTSGLVLNVYSYANGFSNKCSSL
modifications: fluorescein isothiocyanate (FITC) label, site not stated
Consider B3, for which the amount of bound molecules at 30 nM (pmol mg^−1 plasma membrane proteins) in assay [3] was found to be 14.4.

B4: cryptogein Val84Phe mutant (ligand)
chain: GTACTATQQTAAYKTLVSILSDASFNQCSTDSGYSMLTAKALPTTAQYKLMCASTACNTMIKKIFTLNPPNCDLTVPTSGLVLNVYSYANGFSNKCSSL
modifications: fluorescein isothiocyanate (FITC) label, site not stated
Turning to B4, the amount of bound molecules at 10 nM (pmol mg^−1 plasma membrane proteins) in assay [3] is 55.3.
